The text below walks through data of PMC8429728, “TNK1 is a ubiquitin-binding and 14-3-3-regulated kinase that can be targeted to block tumor growth” (Nature Communications, 2021).

Assay [1] addresses 14-3-3ζ (UniProt P63104). As to the kind of experiment: in vitro europium/Cy5 FRET binding assay.
Assay [2] addresses Biotin-(4xPEG)-RNKGISRp… (human). As to the kind of experiment: BLI; biotin-tagged peptide loaded on streptavidin biosensors; 14-3-3ζ 50–1000 nM, 4 s association, 120 s dissociation; 0.001% TBST; 30 °C; Kd = Koff/Kon, mean of 3 runs. Background: In BLI a coated tip is dipped into the sample, and binding shifts an interference pattern.
Assay [3] deals with FLAG-TNK1 ΔUBA (1–580) (human) (UniProt Q13470). As to the kind of experiment: co-IP; FLAG-TNK1 (WT or mutants) precipitated on anti-DYKDDDDK resin from HEK-293T lysate (10 mM HEPES KOH pH 7.5, 150 mM KCl, 0.01% IGEPAL), 1 h 4 °C, washed with PBS; immunoblotted for 14-3-3 or ubiquitin; in Fig. 2c cells treated with 1 uM kinase inhibitors for 4 h. In general terms: A western blot detects proteins with antibodies after separation by electrophoresis.
FLAG-TNK1 ΔUBA (1–580) (human), sequence (Q13470 1-580, stated change not applied): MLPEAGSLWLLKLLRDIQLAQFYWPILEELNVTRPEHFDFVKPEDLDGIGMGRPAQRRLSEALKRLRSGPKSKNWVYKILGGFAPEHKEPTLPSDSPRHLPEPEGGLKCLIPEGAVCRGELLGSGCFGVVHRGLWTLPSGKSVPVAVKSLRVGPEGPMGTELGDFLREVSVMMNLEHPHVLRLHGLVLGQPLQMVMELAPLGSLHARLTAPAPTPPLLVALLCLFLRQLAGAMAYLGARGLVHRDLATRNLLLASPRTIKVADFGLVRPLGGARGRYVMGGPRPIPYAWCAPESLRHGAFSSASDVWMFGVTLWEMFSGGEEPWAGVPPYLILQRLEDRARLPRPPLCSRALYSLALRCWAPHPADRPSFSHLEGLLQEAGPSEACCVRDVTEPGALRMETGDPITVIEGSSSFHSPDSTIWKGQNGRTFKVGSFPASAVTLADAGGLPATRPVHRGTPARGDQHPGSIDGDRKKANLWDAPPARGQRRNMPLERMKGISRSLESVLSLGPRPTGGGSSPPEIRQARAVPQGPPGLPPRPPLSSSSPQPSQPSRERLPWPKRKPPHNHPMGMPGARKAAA

14-3-3 (endogenous, isoform not told), sequence (P63104 whole entry, canonical isoform): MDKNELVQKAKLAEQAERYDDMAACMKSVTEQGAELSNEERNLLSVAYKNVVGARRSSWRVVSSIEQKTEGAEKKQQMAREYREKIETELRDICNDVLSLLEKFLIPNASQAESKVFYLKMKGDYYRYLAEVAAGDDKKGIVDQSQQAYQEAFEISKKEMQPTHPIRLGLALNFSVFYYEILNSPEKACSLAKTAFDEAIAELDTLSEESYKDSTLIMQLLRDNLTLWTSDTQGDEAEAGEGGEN

Take “TNK1 (from UniProt Q13470) pS502 peptide”: the “binding against the reference” value in assay [1] (reference: non-phosphorylated peptide, sites S502) was “gained”. What is called Kd is the equilibrium constant for the complex coming apart. The low end stands for tighter binding, the high end for weaker binding. As for “14-3-3ζ (purified, from the GST-14-3-3ζ plasmid) (from UniProt P63104 1-245) (natural protein)”, in assay [2], the Kd turned out to be 3.39 µM.

Consider “TNK1 (from UniProt Q13470) pS500/pS502/pS505 peptide”, for which the “binding against the reference” value in assay [1] (reference: pS502 mono-phosphorylated peptide, sites S500,S505) is reported as “lost”. Consider “14-3-3 (endogenous, isoform not told) (from UniProt P63104 1-245) (natural protein)”, for which, in assay [3], the fold increase in interaction with 14-3-3 compared to WT TNK1 is 4 fold.
